The series deals with the molecule itself. Nature of the series: SEC-MALS; Superdex 200 HR 10/30 equilibrated in appropriate buffer, coupled to three-angle light scattering and refractive index detectors, 0.2 ml/min.

B1: ARC CARD domain (amino acids 1-95), wild type (domain or fragment, human, UniProt O60936 1-95, looked up)
chain: MGNAQERPSETIDRERKRLVETLQADSGLLLDALLARGVLTGPEYEALDALPDAERRVRRLLLLVQGKGEAACQELLRCAQRTAGAPDPAWDWQH
notes: Apoptosis repressor with caspase recruiting domain (ARC), human (208 amino acids), CARD domain, amino acids 1-95; Expression and purification are said to be described in detail elsewhere; A selenomethionine-substituted form was made for SAD phasing; also called CARD domain of ARC; caspase recruiting domain of apoptosis repressor with CARD; not shown: His-tag, C-terminal, kept
As to B1, the “stoichiometry N” value came to 2.

(Values after paper PMC4453921, “Crystal structure of caspase recruiting domain (CARD) of apoptosis repressor with CARD (ARC) and its implication in inhibition of apoptosis” (Scientific Reports, 2015).)
